These results are taken from IntAct's records for PubMed 9845368.

The chains are these.
B1: Phytochrome B (Oryza sativa subsp. japonica (Rice)), Q10MG9 (parent)
chain: MASGSRATPTRSPSSARPAAPRHQHHHSQSSGGSTSRAGGGGGGGGGGGGGAAAAESVSKAVAQYTLDARLHAVFEQSGASGRSFDYTQSLRASPTPSSEQQIAAYLSRIQRGGHIQPFGCTLAVADDSSFRLLAYSENTADLLDLSPHHSVPSLDSSAVPPPVSLGADARLLFAPSSAVLLERAFAAREISLLNPLWIHSRVSSKPFYAILHRIDVGVVIDLEPARTEDPALSIAGAVQSQKLAVRAISRLQALPGGDVKLLCDTVVEYVRELTGYDRVMVYRFHEDEHGEVVAESRRNNLEPYIGLHYPATDIPQASRFLFRQNRVRMIADCHAAPVRVIQDPALTQPLCLVGSTLRSPHGCHAQYMANMGSIASLVMAVIISSGGDDDHNISRGSIPSAMKLWGLVVCHHTSPRCIPFPLRYACEFLMQAFGLQLNMELQLAHQLSEKHILRTQTLLCDMLLRDSPTGIVTQSPSIMDLVKCDGAALYYHGKYYPLGVTPTEVQIKDIIEWLTMCHGDSTGLSTDSLADAGYPGAAALGDAVSGMAVAYITPSDYLFWFRSHTAKEIKWGGAKHHPEDKDDGQRMHPRSSFKAFLEVVKSRSLPWENAEMDAIHSLQLILRDSFRDSAEGTSNSKAIVNGQVQLGELELRGIDELSSVAREMVRLIETATVPIFAVDTDGCINGWNAKVAELTGLSVEEAMGKSLVNDLIFKESEETVNKLLSRALRGDEDKNVEIKLKTFGPEQSKGPIFVIVNACSSRDYTKNIVGVCFVGQDVTGQKVVMDKFINIQGDYKAIVHNPNPLIPPIFASDENTCCSEWNTAMEKLTGWSRGEVVGKLLVGEVFGNCCRLKGPDALTKFMIVLHNAIGGQDCEKFPFSFFDKNGKYVQALLTANTRSRMDGEAIGAFCFLQIASPELQQAFEIQRHHEKKCYARMKELAYIYQEIKNPLNGIRFTNSLLEMTDLKDDQRQFLETSTACEKQMSKIVKDASLQSIEDGSLVLEKGEFSLGSVMNAVVSQVMIQLRERDLQLIRDIPDEIKEASAYGDQYRIQQVLCDFLLSMVRFAPAENGWVEIQVRPNIKQNSDGTDTMLFLFRFACPGEGLPPEIVQDMFSNSRWTTQEGIGLSICRKILKLMGGEVQYIRESERSFFHIVLELPQPQQAASRGTS
partner: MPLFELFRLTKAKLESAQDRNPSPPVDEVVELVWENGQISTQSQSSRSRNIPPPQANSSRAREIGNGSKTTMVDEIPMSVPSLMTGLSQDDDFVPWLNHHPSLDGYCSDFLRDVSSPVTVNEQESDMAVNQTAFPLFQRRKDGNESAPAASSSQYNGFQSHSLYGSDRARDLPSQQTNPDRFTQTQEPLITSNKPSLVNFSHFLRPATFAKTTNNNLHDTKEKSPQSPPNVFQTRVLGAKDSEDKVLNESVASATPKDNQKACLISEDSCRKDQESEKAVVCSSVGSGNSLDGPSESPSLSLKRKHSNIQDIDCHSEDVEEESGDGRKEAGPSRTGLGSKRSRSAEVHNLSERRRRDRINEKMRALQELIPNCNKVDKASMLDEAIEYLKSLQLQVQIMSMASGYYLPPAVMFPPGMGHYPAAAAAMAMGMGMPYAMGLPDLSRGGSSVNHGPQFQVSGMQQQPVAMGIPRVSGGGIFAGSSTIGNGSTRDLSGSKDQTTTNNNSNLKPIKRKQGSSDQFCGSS
B2: Phytochrome A (Arabidopsis thaliana (Mouse-ear cress)), P14712 (parent)
chain: MSGSRPTQSSEGSRRSRHSARIIAQTTVDAKLHADFEESGSSFDYSTSVRVTGPVVENQPPRSDKVTTTYLHHIQKGKLIQPFGCLLALDEKTFKVIAYSENASELLTMASHAVPSVGEHPVLGIGTDIRSLFTAPSASALQKALGFGDVSLLNPILVHCRTSAKPFYAIIHRVTGSIIIDFEPVKPYEVPMTAAGALQSYKLAAKAITRLQSLPSGSMERLCDTMVQEVFELTGYDRVMAYKFHEDDHGEVVSEVTKPGLEPYLGLHYPATDIPQAARFLFMKNKVRMIVDCNAKHARVLQDEKLSFDLTLCGSTLRAPHSCHLQYMANMDSIASLVMAVVVNEEDGEGDAPDATTQPQKRKRLWGLVVCHNTTPRFVPFPLRYACEFLAQVFAIHVNKEVELDNQMVEKNILRTQTLLCDMLMRDAPLGIVSQSPNIMDLVKCDGAALLYKDKIWKLGTTPSEFHLQEIASWLCEYHMDSTGLSTDSLHDAGFPRALSLGDSVCGMAAVRISSKDMIFWFRSHTAGEVRWGGAKHDPDDRDDARRMHPRSSFKAFLEVVKTRSLPWKDYEMDAIHSLQLILRNAFKDSETTDVNTKVIYSKLNDLKIDGIQELEAVTSEMVRLIETATVPILAVDSDGLVNGWNTKIAELTGLSVDEAIGKHFLTLVEDSSVEIVKRMLENALEGTEEQNVQFEIKTHLSRADAGPISLVVNACASRDLHENVVGVCFVAHDLTGQKTVMDKFTRIEGDYKAIIQNPNPLIPPIFGTDEFGWCTEWNPAMSKLTGLKREEVIDKMLLGEVFGTQKSCCRLKNQEAFVNLGIVLNNAVTSQDPEKVSFAFFTRGGKYVECLLCVSKKLDREGVVTGVFCFLQLASHELQQALHVQRLAERTAVKRLKALAYIKRQIRNPLSGIMFTRKMIEGTELGPEQRRILQTSALCQKQLSKILDDSDLESIIEGCLDLEMKEFTLNEVLTASTSQVMMKSNGKSVRITNETGEEVMSDTLYGDSIRLQQVLADFMLMAVNFTPSGGQLTVSASLRKDQLGRSVHLANLEIRLTHTGAGIPEFLLNQMFGTEEDVSEEGLSLMVSRKLVKLMNGDVQYLRQAGKSSFIITAELAAANK
partner: B1 partner
B3: Phytochrome B (Arabidopsis thaliana (Mouse-ear cress)), P14713 (parent)
chain: MVSGVGGSGGGRGGGRGGEEEPSSSHTPNNRRGGEQAQSSGTKSLRPRSNTESMSKAIQQYTVDARLHAVFEQSGESGKSFDYSQSLKTTTYGSSVPEQQITAYLSRIQRGGYIQPFGCMIAVDESSFRIIGYSENAREMLGIMPQSVPTLEKPEILAMGTDVRSLFTSSSSILLERAFVAREITLLNPVWIHSKNTGKPFYAILHRIDVGVVIDLEPARTEDPALSIAGAVQSQKLAVRAISQLQALPGGDIKLLCDTVVESVRDLTGYDRVMVYKFHEDEHGEVVAESKRDDLEPYIGLHYPATDIPQASRFLFKQNRVRMIVDCNATPVLVVQDDRLTQSMCLVGSTLRAPHGCHSQYMANMGSIASLAMAVIINGNEDDGSNVASGRSSMRLWGLVVCHHTSSRCIPFPLRYACEFLMQAFGLQLNMELQLALQMSEKRVLRTQTLLCDMLLRDSPAGIVTQSPSIMDLVKCDGAAFLYHGKYYPLGVAPSEVQIKDVVEWLLANHADSTGLSTDSLGDAGYPGAAALGDAVCGMAVAYITKRDFLFWFRSHTAKEIKWGGAKHHPEDKDDGQRMHPRSSFQAFLEVVKSRSQPWETAEMDAIHSLQLILRDSFKESEAAMNSKVVDGVVQPCRDMAGEQGIDELGAVAREMVRLIETATVPIFAVDAGGCINGWNAKIAELTGLSVEEAMGKSLVSDLIYKENEATVNKLLSRALRGDEEKNVEVKLKTFSPELQGKAVFVVVNACSSKDYLNNIVGVCFVGQDVTSQKIVMDKFINIQGDYKAIVHSPNPLIPPIFAADENTCCLEWNMAMEKLTGWSRSEVIGKMIVGEVFGSCCMLKGPDALTKFMIVLHNAIGGQDTDKFPFPFFDRNGKFVQALLTANKRVSLEGKVIGAFCFLQIPSPELQQALAVQRRQDTECFTKAKELAYICQVIKNPLSGMRFANSLLEATDLNEDQKQLLETSVSCEKQISRIVGDMDLESIEDGSFVLKREEFFLGSVINAIVSQAMFLLRDRGLQLIRDIPEEIKSIEVFGDQIRIQQLLAEFLLSIIRYAPSQEWVEIHLSQLSKQMADGFAAIRTEFRMACPGEGLPPELVRDMFHSSRWTSPEGLGLSVCRKILKLMNGEVQYIRESERSYFLIILELPVPRKRPLSTASGSGDMMLMMPY
partner: B1 partner

The variants in one test derive from B1. The following applies: with pif3_arath PIF3, O80536.
With E821K, the “effect of a mutation on the interaction” value was “decreasing interaction”. A759V: the “effect of a mutation on the interaction” value is on record as “decreasing interaction”.

The variants in a further test derive from B2. The following applies: with pif3_arath PIF3, O80536.
As to A715V, the “effect of a mutation on the interaction” value is recorded as “decreasing interaction”. For G787E, the “effect of a mutation on the interaction” value is listed as “decreasing interaction”.

Another test covers variants of B3. The following applies: with pif3_arath PIF3, O80536.
As to E812K, the “effect of a mutation on the interaction” value is listed as “decreasing interaction”.

As to A750V, the “effect of a mutation on the interaction” value is listed as “decreasing interaction”.
